Data taken from article PMC7311396 (2020).
Non-standard residues stand in square brackets, D forms with d. No end group written: not given here. Phe(4-NO2) = N[C@@H](Cc1ccc([N+](=O)[O-])cc1)C(=O)O; pS = N[C@@H](COP(=O)(O)O)C(=O)O; βAla = NCCC(=O)O

B3: 14-3-3γ (natural protein)
chain: MVDREQLVQKARLAEQAERYDDMAAAMKNVTELNEPLSNEERNLLSVAYKNVVGARRSSWRVISSIEQKTSADGNEKKIEMVRAYREKIEKELEAVCQDVLSLLDNYLIKNCSETQYESKVFYLKMKGDYYRYLAEVATGEKRATVVESSEKAYSEAHEISKEHMQPTHPIRLGLALNYSVFYYEIQNAPEQACHLAKTAFDDAIAELDTLNEDSYKDSTLIMQLLRDNLTLWTSDQQDDDGGEGNN

Columns and labels:
14-3-3γ [1] = molecular target: B3; assay: FP
14-3-3γ [2] = molecular target: B3; assay: FP; competition with FITC-BiExoS
FITC-labeled 14-3-3.1 = FITC-labeled 14-3-3.1 (FITC label (position not given); phosphoserine fixed in the middle, flanked by four varied positions on either side; non-canonical amino acids; C-terminal motif Nph-β-Ser-(β-Ala/β-Ser)-Nph; …); assay: FP

B1: FITC-labeled 14-3-3.12 (peptide)
chain: KVF[thiazolylalanine][pS][Phe(4-NO2)]S[βAla][Phe(4-NO2)]K-NH2
modifications: not fully specified (residue 7); also: FITC label, position not given here, position 7 is a β-residue, identity not given here
Kd (14-3-3γ [1]): 19 nM

B2: 14-3-3.12, unlabeled (peptide)
chain: KVF[thiazolylalanine][pS][Phe(4-NO2)]S[βAla][Phe(4-NO2)]K-NH2
modifications: not fully specified (residue 7); also: position 7 is a β-residue, identity not given here
IC50 (14-3-3γ [2]): 198 nM

B3
Kd (FITC-labeled 14-3-3.1): 5.7 nM
